The text below walks through data of patent publication US20210332142A1 (Genentech, published 2021).

Assay [1] concerns the target T1, human Tie1 (human, UniProt P35590 22-759).
T1 construct: extracellular domain
T1 sequence (looked up): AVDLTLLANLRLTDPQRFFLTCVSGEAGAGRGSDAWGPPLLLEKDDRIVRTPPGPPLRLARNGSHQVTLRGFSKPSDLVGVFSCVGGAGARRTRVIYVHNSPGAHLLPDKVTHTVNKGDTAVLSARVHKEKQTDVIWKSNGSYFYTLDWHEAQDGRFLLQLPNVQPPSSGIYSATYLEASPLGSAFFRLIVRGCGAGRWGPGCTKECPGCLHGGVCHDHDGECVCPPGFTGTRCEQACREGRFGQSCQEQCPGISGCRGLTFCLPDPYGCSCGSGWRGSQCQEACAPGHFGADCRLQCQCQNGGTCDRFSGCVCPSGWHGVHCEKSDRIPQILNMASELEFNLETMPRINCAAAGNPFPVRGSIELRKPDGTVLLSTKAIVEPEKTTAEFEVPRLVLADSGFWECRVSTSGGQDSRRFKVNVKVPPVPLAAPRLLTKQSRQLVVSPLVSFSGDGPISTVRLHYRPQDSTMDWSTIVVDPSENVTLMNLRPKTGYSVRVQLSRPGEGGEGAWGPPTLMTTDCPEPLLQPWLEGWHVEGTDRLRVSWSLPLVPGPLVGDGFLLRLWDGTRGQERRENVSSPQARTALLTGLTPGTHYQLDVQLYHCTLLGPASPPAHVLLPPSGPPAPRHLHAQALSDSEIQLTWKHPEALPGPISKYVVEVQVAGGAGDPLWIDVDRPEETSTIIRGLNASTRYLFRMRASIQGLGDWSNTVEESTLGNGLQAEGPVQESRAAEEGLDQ
Nature of the assay: ELISA: human Tie1 immobilized, serial dilutions of IgG, anti-huFc-HRP. The text has this: (§1) Plates were washed and detected with anti-huFC-conjugated HRP secondary antibody using the methods above.
The binding ELISA was also used with immobilized Tie1 protein to assess Tie1 binding.

Assay [2] deals with T2, recombinant cyno Tie2 extracellular domain (cynomolgus monkey, UniProt Q02763 23-748 (human entry)).
T2 construct: also called Recombinant cyno Tie2 ECD; cy Tie2
T2 chain: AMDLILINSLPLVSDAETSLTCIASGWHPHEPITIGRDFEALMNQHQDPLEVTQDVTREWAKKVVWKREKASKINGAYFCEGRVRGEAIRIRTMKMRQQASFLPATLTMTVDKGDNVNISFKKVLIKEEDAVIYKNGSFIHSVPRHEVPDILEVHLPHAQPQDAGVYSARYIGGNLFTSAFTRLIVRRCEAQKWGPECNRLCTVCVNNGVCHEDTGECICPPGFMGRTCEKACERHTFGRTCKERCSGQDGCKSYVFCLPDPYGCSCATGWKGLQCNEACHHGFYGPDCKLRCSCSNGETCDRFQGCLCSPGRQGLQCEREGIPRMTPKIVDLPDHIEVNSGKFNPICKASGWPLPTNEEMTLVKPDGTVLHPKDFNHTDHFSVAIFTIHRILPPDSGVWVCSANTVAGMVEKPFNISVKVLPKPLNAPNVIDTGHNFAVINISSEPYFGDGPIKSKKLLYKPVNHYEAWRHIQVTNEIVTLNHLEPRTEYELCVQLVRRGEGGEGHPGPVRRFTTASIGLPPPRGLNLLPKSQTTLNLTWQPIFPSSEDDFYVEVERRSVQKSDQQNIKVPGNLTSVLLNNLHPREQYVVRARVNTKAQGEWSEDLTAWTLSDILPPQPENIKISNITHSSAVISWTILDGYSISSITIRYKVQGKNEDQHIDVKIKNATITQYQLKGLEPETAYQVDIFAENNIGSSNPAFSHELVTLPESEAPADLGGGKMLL
The experiment in a line: SPR multi-cycle kinetics, IgG captured, kinetic analysis. Here is the method: (§2) Binding to recombinant human and cyno Tie2 was analyzed using a high performance multi-cycle kinetics format with a contact time of 60 seconds, a dissociation time of 60 seconds, a flow rate of 100 μl/minute and Tie2 concentrations of 5 μM, 2.5 μM, 1.25 μM, 625 nM, 313 nM and 156 nM. Tie2 concentrations of 5 μM, 2.5 μM and 1.25 μM were injected twice. Results were analyzed using Biacore T200 Evaluation Software v3.0 (GE Life Sciences). Results from all three surface densities were analyzed together using the 1:1 Binding model with multiple Rmax and the RI parameter set to zero.

In assay [3] the target is T2, recombinant cyno Tie2 extracellular …. Nature of the assay: SPR multi-cycle kinetics, IgG captured, kinetic analysis; cyno Tie2; kinetic analysis. Here is the method: as §2
For assay [4], the target named is T3, recombinant human Tie2 extracellular domain (human, UniProt Q02763 23-748).
T3 construct: whole entry named; also called Recombinant human Tie2 ECD; hu Tie2
The experiment in a line: SPR, IgG captured, 37C. Here is the method: (§3) Antibodies were screened for binding to recombinant human and cyno Tie2 using a Biacore T200 instrument (GE Life Sciences). Briefly, a human antibody capture chip was generated using a Series S CM5 chip, a human antibody capture kit, and an amine coupling kit (GE Life Sciences). Antibodies diluted to 5 μg/ml were captured using a flow rate of 10 μl/minute and a contact time of 20 seconds. Binding of 300 nM and 1500 nM recombinant human and cyno Tie2 extracellular domain to the captured antibodies was analyzed at 37° C. using a single cycle kinetics method with a flow rate of 50 μl/minute, a contact time of 60 seconds and a dissociation time of 120 seconds. Between cycles, the chip was regenerated using 3M MgCl₂ injected for 30 seconds at 30 μl/minute. Data were evaluated using Biacore T200 Evaluation software (GE Life Sciences). Kinetic constants were obtained using a 1:1 binding model with the parameter RI set to zero. Selected antibodies (Table 7A-7B; ch denotes rabbit Abs; TEK denotes rat Abs) were taken forward for secondary activity screening in Fab-NDK format (see Example 8 below).

In assay [5] the target is T2, recombinant cyno Tie2 extracellular …. The experiment in a line: SPR, IgG captured, 37C. Here is the method: as §3
In assay [6] the target is T4, mouse Tie2 ECD5 (mouse, UniProt Q02858 23-442, limits assumed).
T4 construct: domain: ECD5 (Ig1, Ig2, EGF and Ig3 domains); also called mECD5
Nature of the assay: ELISA: mouse Tie2 ECD5 construct immobilized, serial dilutions of IgG, anti-huFc-HRP.
Source text: as §1

B1: Tie2.1 (antibody, human IgG1, V domains shown)
VH: EVQLVESGGGLVQPGGSLRLSCAASGFTFSNTDISWVRQAPGKGLEWVGRISPSDGNTYYADSVKGRFTISADTSKNTAYLQMNSLRAEDTAVYYCARRTRWASWAMDYWGQGTLVTVSS
VL: DIQMTQSPSSLSASVGDRVTITCRASQDVSTAVAWYQQKPGKAPKLLIYSASFLYSGVPSRFSGSGSGTDFTLTISSLQPEDFATYYCQQSYTTPPTFGQGTKVEIKR
notes: human IgG1 in all later assays; also called Ab1; Tie2.1.M100c
In the case of B1, the binding result in assay [1] is “no binding (tested: 200 nM)”; in assay [6], “binds”. Also, the off-rate constant (koff) in assay [2] worked out at 0.44 s⁻¹; in assay [4], 0.3 s⁻¹; in assay [5], 0.3 s⁻¹. Also, the figures for the on-rate (kon) in assay [2], in assay [4] and in assay [5] were 150000 M⁻¹ s⁻¹, 100000 M⁻¹ s⁻¹ and 90000 M⁻¹ s⁻¹, respectively. For the same molecule, the Kd in assay [3] was determined as 3000 nM; in assay [4] it was 3000 nM; in assay [5] it was 4000 nM.
